Positions of bridges follow the written chain, without caps; N, C: chain ends. Non-standard residues stand in square brackets, D forms with d. dDip = N[C@@H](C(=O)O)C(c1ccccc1)c1ccccc1; dPhe(4-Br) = N[C@H](Cc1ccc(Br)cc1)C(=O)O; d2Nal = N[C@H](Cc1ccc2ccccc2c1)C(=O)O; d(αMeF) = C[C@@](N)(Cc1ccccc1)C(=O)O; NMeR = CN[C@@H](CCCNC(=N)N)C(=O)O; dNMeF = CN[C@H](Cc1ccccc1)C(=O)O; Tic = O=C(O)[C@@H]1Cc2ccccc2CN1; dTic = O=C(O)[C@H]1Cc2ccccc2CN1; Cit = NC(=O)NCCC[C@H](N)C(=O)O; Aib = CC(C)(N)C(=O)O
Tests used:
Test in all cases: cell-based or functional assay
[1] = target: T1, human MC4R receptor (human, UniProt P32245 1-332)
[2] = target: human MC3R (human, UniProt P41968 1-323)
[3] = target: T1, human MC4R receptor; remark: listed apart in the source

human MC3R, sequence (P41968 whole entry): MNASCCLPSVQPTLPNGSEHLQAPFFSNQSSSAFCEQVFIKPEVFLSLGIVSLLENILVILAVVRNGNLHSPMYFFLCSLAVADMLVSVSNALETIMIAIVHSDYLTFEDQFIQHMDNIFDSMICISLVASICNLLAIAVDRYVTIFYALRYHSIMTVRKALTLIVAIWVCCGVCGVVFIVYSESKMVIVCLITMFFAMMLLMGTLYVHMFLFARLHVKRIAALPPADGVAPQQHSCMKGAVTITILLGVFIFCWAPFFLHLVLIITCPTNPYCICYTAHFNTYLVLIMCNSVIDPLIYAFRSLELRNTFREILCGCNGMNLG
T1 sequence (P32245 whole entry): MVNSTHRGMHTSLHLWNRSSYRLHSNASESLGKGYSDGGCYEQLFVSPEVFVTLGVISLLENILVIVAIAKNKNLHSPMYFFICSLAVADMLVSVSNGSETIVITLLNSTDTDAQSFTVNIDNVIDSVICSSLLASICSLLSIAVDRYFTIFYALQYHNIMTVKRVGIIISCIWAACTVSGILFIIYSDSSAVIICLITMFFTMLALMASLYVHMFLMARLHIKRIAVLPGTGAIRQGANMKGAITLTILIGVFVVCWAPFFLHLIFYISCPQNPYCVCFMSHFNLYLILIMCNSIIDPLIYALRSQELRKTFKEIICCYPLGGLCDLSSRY

MC4R selectivity vs MC1R [1] | MC4R selectivity vs MC3R [1] | % max activation [2] [%] | cAMP EC50 [2] [nM] | % max activation [3] [%] | cAMP EC50 [3] [nM] | Binder
0.05 | 0.64 | 3.7 | 4780 | 32 | 7430 | Ac-RC[dA]R[dTic]R[dW]C-NH2 (disulfide 2-8) [CTX-1273]
0.003 | 0.08 | 17 | 592 | 29 | 7240 | Ac-RC[dA]R[dPhe(4-Br)]R[dTic]C-NH2 (disulfide 2-8) [CTX-1256]
0.04 | 0.06 | 1.1 | 57 | 4.4 | 885 | Ac-RC[dA]R[dPhe(4-Br)][dR][dW]C-NH2 (disulfide 2-8) [CTX-1252]
0.05 | 0.24 | 28 | 7.5 | 60 | 31 | Ac-RC[dA]R[dPhe(4-Br)]R[dF]C-NH2 (disulfide 2-8; SMILES CC(=O)N[C@@H](CCCNC(=N)N)C(=O)N[C@H]1CSSC[C@@H](C(N)=O)NC(=O)[C@@H](Cc2ccccc2)NC(=O)[C@H](CCCNC(=N)N)NC(=O)[C@@H](Cc2ccc(Br)cc2)NC(=O)[C@H](CCCNC(=N)N)NC(=O)[C@@H](C)NC1=O) [CTX-1255]
0.26 | 2.19 | 5.5 | 9.2 | 22 | 4.2 | Ac-RC[dA]R[dPhe(4-Br)]R[d2Nal]C-NH2 (disulfide 2-8; SMILES CC(=O)N[C@@H](CCCNC(=N)N)C(=O)N[C@H]1CSSC[C@@H](C(N)=O)NC(=O)[C@@H](Cc2ccc3ccccc3c2)NC(=O)[C@H](CCCNC(=N)N)NC(=O)[C@@H](Cc2ccc(Br)cc2)NC(=O)[C@H](CCCNC(=N)N)NC(=O)[C@@H](C)NC1=O) [CTX-1254]
0.21 | 0.9 | 0.9 | 671 | 5.3 | 750 | Ac-RC[dA]R[dNMeF]R[dW]C-NH2 (disulfide 2-8; SMILES CC(=O)N[C@@H](CCCNC(=N)N)C(=O)N[C@H]1CSSC[C@@H](C(N)=O)NC(=O)[C@@H](Cc2c[nH]c3ccccc23)NC(=O)[C@H](CCCNC(=N)N)NC(=O)[C@@H](Cc2ccccc2)N(C)C(=O)[C@H](CCCNC(=N)N)NC(=O)[C@@H](C)NC1=O) [CTX-1272]
0.1 | 1.24 | 2.6 | 541 | 4 | 438 | Ac-RC[dA]R[dDip]R[dW]C-NH2 (disulfide 2-8) [CTX-1280]
0.57 | 0.53 | 9.2 | 4 | 58 | 7.6 | Ac-RC[dA]R[dPhe(4-Br)][Cit][dW]C-NH2 (disulfide 2-8; SMILES CC(=O)N[C@@H](CCCNC(=N)N)C(=O)N[C@H]1CSSC[C@@H](C(N)=O)NC(=O)[C@@H](Cc2c[nH]c3ccccc23)NC(=O)[C@H](CCCNC(N)=O)NC(=O)[C@@H](Cc2ccc(Br)cc2)NC(=O)[C@H](CCCNC(=N)N)NC(=O)[C@@H](C)NC1=O) [CTX-1253]
2.9 | 1.63 | 16 | 117 | 95 | 72 | Ac-RC[Aib]R[dF][Cit][dW]C-NH2 (disulfide 2-8) [CTX-1271]
0.01 | 0.05 | 13 | 239 | 38 | 4930 | Ac-RC[dA]R[dPhe(4-Br)]R[dA]C-NH2 (disulfide 2-8; SMILES CC(=O)N[C@@H](CCCNC(=N)N)C(=O)N[C@H]1CSSC[C@@H](C(N)=O)NC(=O)[C@@H](C)NC(=O)[C@H](CCCNC(=N)N)NC(=O)[C@@H](Cc2ccc(Br)cc2)NC(=O)[C@H](CCCNC(=N)N)NC(=O)[C@@H](C)NC1=O) [CTX-1260]
0.01 | 0.12 | 27 | 146 | 70 | 1250 | Ac-RC[dA]R[dPhe(4-Br)]R[Tic]C-NH2 (disulfide 2-8) [CTX-1259]
0.11 | 3.73 | 30 | 93 | 31 | 25 | Ac-RC[dA]RF[NMeR][dW]C-NH2 (disulfide 2-8; not fully specified (residue 5)) [CTX-1251]
0.14 | 0.38 | 4.2 | 545 | 72 | 1420 | Ac-RC[dA]R[dF][dR]WC-NH2 (disulfide 2-8; SMILES CC(=O)N[C@@H](CCCNC(=N)N)C(=O)N[C@H]1CSSC[C@@H](C(N)=O)NC(=O)[C@H](Cc2c[nH]c3ccccc23)NC(=O)[C@@H](CCCNC(=N)N)NC(=O)[C@@H](Cc2ccccc2)NC(=O)[C@H](CCCNC(=N)N)NC(=O)[C@@H](C)NC1=O) [CTX-1282]
0.19 | 0.12 | 5.4 | 164 | 77 | 1400 | Ac-RC[dA]R[dW]RWC-NH2 (disulfide 2-8; SMILES CC(=O)N[C@@H](CCCNC(=N)N)C(=O)N[C@H]1CSSC[C@@H](C(N)=O)NC(=O)[C@H](Cc2c[nH]c3ccccc23)NC(=O)[C@H](CCCNC(=N)N)NC(=O)[C@@H](Cc2c[nH]c3ccccc23)NC(=O)[C@H](CCCNC(=N)N)NC(=O)[C@@H](C)NC1=O) [CTX-1274]
0.83 | 0.61 | 20 | 43 | 79 | 72 | Ac-RC[dA]R[d(αMeF)]R[dW]C-NH2 (disulfide 2-8; SMILES CC(=O)N[C@@H](CCCNC(=N)N)C(=O)N[C@H]1CSSC[C@@H](C(N)=O)NC(=O)[C@@H](Cc2c[nH]c3ccccc23)NC(=O)[C@H](CCCNC(=N)N)NC(=O)[C@@](C)(Cc2ccccc2)NC(=O)[C@H](CCCNC(=N)N)NC(=O)[C@@H](C)NC1=O) [CTX-1279]

Source: US20240391954A1, “MC4R AGONIST PEPTIDES” (The Regents of the University of Michigan, priority 2021, published 2024)
